Measurements published in patent US20050095655A1, “Solution-based methods for detecting MHC-binding peptides” (priority 2003, published 2005).

Assays:
[1] = biological target: monomer HLA-A*0201/HIVpol (Homo sapiens, UniProt P04439, D140Y/D185E/D98H/E176V/E277Q/G131W/G231S/I119V/I121R/I166T/I218V/L300P/L318F/N151K/N90K/P208A/P217A/Q86G/Q94H/R138H/R169H/T345S); assay: Exchange of fluorescent tracer peptide on template monomer, no competitor
[2] = biological target: monomer HLA-A*0201/CMVpp65 (Homo sapiens, UniProt P04439, D140Y/D185E/D98H/E176V/E277Q/G131W/G231S/I119V/I121R/I166T/I218V/L300P/L318F/N151K/N90K/P208A/P217A/Q86G/Q94H/R138H/R169H/T345S); assay: as above; conditions: after 120 h

Substance: FLPSDC(FITC)FPSV [HBVc-FITC]
- maximum percentage of exchange [1]: 40%
- % exchange [2]: about 80%
